Laboratory results taken from patent US20240358755A1 (IMMATICS BIOTECHNOLOGIES, published 2024).
Each block holds one binder with its values, some of them ahead of it.

Columns and labels:
[1] = target: T1, HLA-A*24:02 (human); experiment: UV peptide exchange, anti-b2m ELISA; exchange yield grade
T1 construct: Peptide-receptive MHC class I monomer in the UV-ligand exchange assay

[2] = target: T2, HLA-A*01:01 (human); experiment: as above
T2 construct: Peptide-receptive MHC class I monomer: a UV-sensitive peptide (not specified) is cleaved and exchanged with the test peptide

[3] = target: T3, HLA-B*08:01 (human); experiment: allele assigned to HLA ligand eluted from tissue (IP, LC-MS)
T3 construct: Peptide-receptive MHC class I monomer in the UV-ligand exchange assay

[4] = target: T3, HLA-B*08:01; experiment: UV peptide exchange, anti-b2m ELISA; exchange yield grade

binding result [1]: binds
B1: IYIPTNSIYKF (peptide)
peptide: IYIPTNSIYKF

peptide exchange yield [2]: 20 to 50%
B2: LNFSDVFLY (peptide)
peptide: LNFSDVFLY

binding result [1]: binds
B3: SHSLPAFTL (peptide)
peptide: SHSLPAFTL

binding result [1]: binds
B4: GRFWLPFNF (peptide)
peptide: GRFWLPFNF

peptide exchange yield [2]: ≥ 75%
B5: TVDKGELLY (peptide)
peptide: TVDKGELLY

binding result [1]: binds
B6: VFIPSVINL (peptide)
peptide: VFIPSVINL

peptide exchange yield [2]: ≥ 75%
B7: NVSFEVSLLY (peptide)
peptide: NVSFEVSLLY

peptide exchange yield [2]: 20 to 50%
B8: VSPDEVLALW (peptide)
peptide: VSPDEVLALW

binding result [1]: binds
B9: IYFHLNNWTI (peptide)
peptide: IYFHLNNWTI

binding result [1]: binds
B10: VQSGVPSRF (peptide)
peptide: VQSGVPSRF

peptide exchange yield [2]: 50 to 75%
B11: NSENLLVY (peptide)
peptide: NSENLLVY

binding result [1]: binds
B12: LYIFTTRPF (peptide)
peptide: LYIFTTRPF

binding result [1]: binds
B13: KYPTIICGF (peptide)
peptide: KYPTIICGF

binding result [1]: binds
B14: AYIPFPPLI (peptide)
peptide: AYIPFPPLI

binding result [1]: binds
B15: SFSLLLPYL (peptide)
peptide: SFSLLLPYL

binding result [1]: binds
B16: IFDLSDPRF (peptide)
peptide: IFDLSDPRF

binding result [3]: binds
B17: TAMTTLMAF (peptide)
peptide: TAMTTLMAF

peptide exchange yield [2]: 20 to 50%
B18: RADEEQASF (peptide)
peptide: RADEEQASF

binding result [3]: binds
B19: ILRTVLPSL (peptide)
peptide: ILRTVLPSL

binding result [4]: binds
B20: NQKGLISL (peptide)
peptide: NQKGLISL

binding result [4]: binds
B21: YAFRNQTL (peptide)
peptide: YAFRNQTL

peptide exchange yield [2]: ≥ 75%
B22: NSDLFYLLL (peptide)
peptide: NSDLFYLLL

peptide exchange yield [2]: 50 to 75%
B23: FSEIFQDFL (peptide)
peptide: FSEIFQDFL

peptide exchange yield [2]: 50 to 75%
B24: LIDSLLLLL (peptide)
peptide: LIDSLLLLL

binding result [1]: binds
B25: LYQTTIELF (peptide)
peptide: LYQTTIELF

peptide exchange yield [2]: ≥ 75%
B26: YSSEIWDLY (peptide)
peptide: YSSEIWDLY

binding result [1]: binds
B27: LHLNPGLSF (peptide)
peptide: LHLNPGLSF

binding result [3]: binds
B28: TILAKQNVL (peptide)
peptide: TILAKQNVL

peptide exchange yield [2]: 20 to 50%
B29: EAAPNIMHY (peptide)
peptide: EAAPNIMHY

binding result [4]: binds
B30: VANDRLSFL (peptide)
peptide: VANDRLSFL

peptide exchange yield [2]: 20 to 50%
B31: FTQKINSTW (peptide)
peptide: FTQKINSTW

peptide exchange yield [2]: 20 to 50%
B32: SADTAELLL (peptide)
peptide: SADTAELLL
